Laboratory results: patent US20240082183

Columns and labels:
[1] = biological target: SDHA (endogenous, in mitochondria isolated from mouse IECs and in C57BL/6 primary colonic epithelial cells), Q8K2B3
[2] = biological target: Serpin 3A
[3] = biological target: mutated SDHA protein with His Tag (mouse; Ile-Glu-Asp-Gly changed to Ile-Glu-Ala-Gly at the putative GzmB cleavage site), Q8K2B3
Chain of mutated SDHA protein with His Tag (mouse; Ile-Glu-Asp-Gly changed to Ile-Glu-Ala-Gly at the putative GzmB cleavage site), Q8K2B3 (Q8K2B3 whole entry, looked up, change not shown): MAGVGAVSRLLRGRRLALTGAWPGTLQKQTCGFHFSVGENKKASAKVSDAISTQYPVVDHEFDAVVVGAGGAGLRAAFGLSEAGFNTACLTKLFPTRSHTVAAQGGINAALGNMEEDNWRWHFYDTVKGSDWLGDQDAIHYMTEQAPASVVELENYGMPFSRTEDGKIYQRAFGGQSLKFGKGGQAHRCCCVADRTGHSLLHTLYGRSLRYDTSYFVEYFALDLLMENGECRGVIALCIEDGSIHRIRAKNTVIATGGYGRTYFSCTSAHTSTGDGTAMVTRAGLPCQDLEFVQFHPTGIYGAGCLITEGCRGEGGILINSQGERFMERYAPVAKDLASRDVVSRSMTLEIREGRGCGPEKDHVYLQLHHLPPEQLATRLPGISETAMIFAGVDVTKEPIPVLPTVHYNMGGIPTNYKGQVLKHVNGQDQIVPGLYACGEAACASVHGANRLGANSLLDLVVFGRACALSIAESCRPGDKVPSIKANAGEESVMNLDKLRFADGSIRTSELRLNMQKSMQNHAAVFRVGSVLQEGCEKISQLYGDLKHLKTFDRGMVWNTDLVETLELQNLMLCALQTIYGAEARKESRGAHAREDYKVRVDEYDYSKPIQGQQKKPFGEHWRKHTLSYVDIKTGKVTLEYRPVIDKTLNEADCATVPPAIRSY

Chain of SDHA (endogenous, in mitochondria isolated from mouse IECs and in C57BL/6 primary colonic epithelial cells), Q8K2B3 (Q8K2B3 43-664): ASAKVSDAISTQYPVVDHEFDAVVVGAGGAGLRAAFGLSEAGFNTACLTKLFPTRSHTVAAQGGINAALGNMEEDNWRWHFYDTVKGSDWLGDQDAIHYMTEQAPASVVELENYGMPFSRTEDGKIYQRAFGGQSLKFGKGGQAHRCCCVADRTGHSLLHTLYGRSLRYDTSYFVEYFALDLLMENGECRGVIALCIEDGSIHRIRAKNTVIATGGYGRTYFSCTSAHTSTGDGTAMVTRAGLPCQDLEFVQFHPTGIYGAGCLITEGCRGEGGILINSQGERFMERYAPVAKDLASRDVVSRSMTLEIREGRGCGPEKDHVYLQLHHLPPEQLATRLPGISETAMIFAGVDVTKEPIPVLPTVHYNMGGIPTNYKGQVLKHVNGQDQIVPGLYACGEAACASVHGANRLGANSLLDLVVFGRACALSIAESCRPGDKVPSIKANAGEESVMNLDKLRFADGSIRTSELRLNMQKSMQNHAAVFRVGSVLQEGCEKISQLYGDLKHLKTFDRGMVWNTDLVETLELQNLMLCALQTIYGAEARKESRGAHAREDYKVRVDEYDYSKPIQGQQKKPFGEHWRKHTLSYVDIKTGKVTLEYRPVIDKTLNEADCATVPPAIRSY

B1: recombinant mouse Granzyme B (protein)
chain: IIGGHEVKPHSRPYMALLSIKDQQPEAICGGFLIREDFVLTAAHCEGSIINVTLGAHNIKEQEKTQQVIPMVKCIPHPDYNPKTFSNDIMLLKLKSKAKRTRAVRPLNLPRRNVNVKPGDVCYVAGWGRMAPMGKYSNTLQEVELTVQKDRECESYFKNRYNKTNQICAGDPKTKRASFRGDSGGPLVCKKVAAGIVSYGYKDGSPPRAFTKVSSFLSWIKKTMKSS
[1]
  proteolysis of SDHA in isolated IEC mitochondria (immunoblot of full length and cleaved SDHA): Treatment with GzmB caused proteolysis of SDHA with a reduction in SDHA with an increase in SDHA cleaved fragments
[2]
  proteolysis of SDHA by GzmB in PCECs treated with perforin, Granzyme B and Serpin 3A for 6 hours (immunoblot of SDHA): The presence of Serpin 3A prevented the proteolysis of SDHA by GzmB
[3]
  proteolysis of mutated SDHA protein (anti-His immunoblot, 6 hours): the mutation of the cleavage site prevented proteolysis of SDHA by GzmB
